Test results: patent US20240325557A1, “TREATMENT OF CANCER” (INNATE PHARMA, priority 2020, published 2024)

T1: Nectin-4 Mutant 1 (S58P/G59D/Q61A/N106D/P107A) (Homo sapiens, UniProt Q96NY8, G59D/N106D/P107A/Q61A/S58P)
T1 construct: expressed in transfected cells; host or cells: HEK293T
T1 sequence (Q96NY8 32-510 S58P/G59D/Q61A/N106D/P107A): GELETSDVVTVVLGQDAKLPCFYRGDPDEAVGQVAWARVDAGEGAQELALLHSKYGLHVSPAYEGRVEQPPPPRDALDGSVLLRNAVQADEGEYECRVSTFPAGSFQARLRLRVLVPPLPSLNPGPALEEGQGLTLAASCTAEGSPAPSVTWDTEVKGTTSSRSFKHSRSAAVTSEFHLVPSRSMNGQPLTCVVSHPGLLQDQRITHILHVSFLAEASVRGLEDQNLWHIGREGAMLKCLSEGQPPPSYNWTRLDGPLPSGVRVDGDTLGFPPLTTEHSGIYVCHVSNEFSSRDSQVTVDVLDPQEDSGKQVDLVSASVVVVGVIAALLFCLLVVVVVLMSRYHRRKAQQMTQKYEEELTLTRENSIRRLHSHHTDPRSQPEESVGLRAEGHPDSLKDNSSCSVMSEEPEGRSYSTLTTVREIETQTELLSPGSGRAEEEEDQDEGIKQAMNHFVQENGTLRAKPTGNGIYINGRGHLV

T2: Nectin-4 Mutant 2 (V90S/P92A/A93S/E95A/G96D) (Homo sapiens, UniProt Q96NY8, A93S/E95A/G96D/P92A/V90S)
T2 construct: expressed in transfected cells; host or cells: HEK293T
T2 sequence (Q96NY8 32-510 V90S/P92A/A93S/E95A/G96D): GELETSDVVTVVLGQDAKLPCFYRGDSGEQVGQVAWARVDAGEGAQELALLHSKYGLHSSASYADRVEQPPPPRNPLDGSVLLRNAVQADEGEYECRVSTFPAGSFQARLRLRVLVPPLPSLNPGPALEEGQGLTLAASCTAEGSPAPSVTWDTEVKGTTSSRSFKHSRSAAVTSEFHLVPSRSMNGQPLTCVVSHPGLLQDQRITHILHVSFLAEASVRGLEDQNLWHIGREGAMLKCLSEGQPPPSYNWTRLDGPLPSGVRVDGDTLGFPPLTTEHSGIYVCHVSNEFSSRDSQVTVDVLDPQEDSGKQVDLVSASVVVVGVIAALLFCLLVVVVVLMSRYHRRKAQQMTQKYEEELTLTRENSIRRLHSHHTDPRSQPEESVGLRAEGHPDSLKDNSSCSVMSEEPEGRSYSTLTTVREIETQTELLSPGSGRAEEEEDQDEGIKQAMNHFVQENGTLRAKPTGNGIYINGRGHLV

T3: Nectin-4 Mutant 7 (S195A/K197T/S199A) (Homo sapiens, UniProt Q96NY8, K197T/S195A/S199A)
T3 construct: expressed in transfected cells; host or cells: HEK293T
T3 sequence (Q96NY8 32-510 S195A/K197T/S199A): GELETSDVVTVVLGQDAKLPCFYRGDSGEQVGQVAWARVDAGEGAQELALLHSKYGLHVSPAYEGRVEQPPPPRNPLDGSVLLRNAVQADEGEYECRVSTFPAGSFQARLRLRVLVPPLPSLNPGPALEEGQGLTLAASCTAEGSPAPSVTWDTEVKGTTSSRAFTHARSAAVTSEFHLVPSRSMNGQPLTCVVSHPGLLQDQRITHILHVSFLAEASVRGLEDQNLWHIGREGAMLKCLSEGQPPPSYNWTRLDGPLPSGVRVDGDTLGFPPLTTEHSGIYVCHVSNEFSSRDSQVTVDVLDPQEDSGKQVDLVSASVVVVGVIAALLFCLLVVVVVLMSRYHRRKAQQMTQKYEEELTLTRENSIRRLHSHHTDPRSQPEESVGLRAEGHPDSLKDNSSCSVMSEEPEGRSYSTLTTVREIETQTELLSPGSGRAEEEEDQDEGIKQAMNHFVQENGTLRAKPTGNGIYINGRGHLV

T4: Nectin-4 Mutant 8 (T190A/T191Q/S193A) (Homo sapiens, UniProt Q96NY8, S193A/T190A/T191Q)
T4 construct: expressed in transfected cells; host or cells: HEK293T
T4 sequence (Q96NY8 32-510 T190A/T191Q/S193A): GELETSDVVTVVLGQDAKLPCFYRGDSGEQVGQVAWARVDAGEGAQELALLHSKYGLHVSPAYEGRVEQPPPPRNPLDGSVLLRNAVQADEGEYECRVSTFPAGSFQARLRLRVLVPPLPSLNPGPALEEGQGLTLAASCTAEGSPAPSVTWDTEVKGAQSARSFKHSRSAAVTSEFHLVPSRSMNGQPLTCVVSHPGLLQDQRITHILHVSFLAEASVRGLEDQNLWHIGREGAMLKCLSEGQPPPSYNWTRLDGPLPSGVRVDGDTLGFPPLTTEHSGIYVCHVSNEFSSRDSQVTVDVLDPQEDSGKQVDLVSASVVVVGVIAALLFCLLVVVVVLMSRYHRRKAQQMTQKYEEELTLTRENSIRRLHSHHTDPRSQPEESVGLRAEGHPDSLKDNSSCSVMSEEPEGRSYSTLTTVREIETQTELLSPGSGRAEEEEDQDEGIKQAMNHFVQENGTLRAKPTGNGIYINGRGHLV

B1: N41 (antibody, V domains shown)
VH: QVQLKQSGPGLVQPSQSLSITCTVSGFSLTNYGVHWVRQSPGKGLEWLGVIWSGGSTDYNAAFISRLSISKDTSKSQVFFKMNSLQADDTAIYYCARELIHAMDNWGQGTSVTVSS
VL: DIQMTQSPASLSVSVGETVTITCRASENIYSNLAWYQQKQGNSPQLLVFAATNLADGVPSRFSGSGSGTQYSLKINSLQSEDFGTYYCQHFWGTPTFGGGTKLEIK
B2: 5E7 (antibody, V domains shown)
VH: QVQLQQPGAELVKPGASVKLSCKASGYIFTSYWMHWVKQRPGQGLEWIGEIDPSDSYTNYNQKFKGKATLTLDKSSSTTYMQLSSLTSEDSAVYYCVRGYGNYGDYWGQGTTLTVSS
VL: DVVMTQAAFSNPVTLGTSASISCRSSKSLLHSNGITYLYWYLQKPGQSPQLLIYQMSNLASGVPDRFSSSGSGTDFTLRISRVEAEDVGVYYCAQNLELPWTFGGGTKLEIK
B3: 10B12: anti-Nectin-4 antibody, VH SEQ ID NO: 24, VL SEQ ID NO: 25, binds junction of domain C1 and V (antibody, listed as Mus musculus, V domains shown)
VH: QVQLQQPGAELVKPGASVKLSCKASGYTFTSYWMHWVKQRPGQGLEWIGEIDPSDSYTNYNQKFKGKATLTVDKSSSTAYMQLSSLTSEDSAVYYCVRGYGNYGDYWGQGTTLTVSS
VL: DIVMTQAAFSNPVTLGTSASISCRSSKSLLHSNGITYLYWYLQKPGQSPQLLIYQMSNLASGVPDRFSSSGSGTDFTLRISRVEAEDVGVYYCAQNLELPWTFGGGTKLEIK

Key:
Assay in all cases: Binding to cell surface expressed Nectin-4 point mutant
Conditions in all cases: HEK-293T
[1] = target: T1, Nectin-4 Mutant 1 (S58P/G59D/Q61A/N106D/P107A)
Source text: (§1) Combined with the published structures of the Nectin-4 domains, Nectin-4 mutations at surface exposed amino acids residues were designed. Nectin-4 domain structure was modelled based on Protein Data Bank reference: 4FRW (domains V et C1). Human Nectin-4 used was NCBI Reference Sequence: NP_112178.2, mouse Nectin-4 used was NCBI Reference Sequence: AAL79833.1, cynomolgus Nectin-4 used was NCBI Reference Sequence: XP_005541277.1, rat Nectin-4 used was NCBI Reference Sequence: NP_001102546.1. The cells expressing the Nectin-4 mutants are then be used for testing anti-Nectin-4 antibodies for loss of binding to different Nectin-4 mutants to identify antibodies that bind to the same site on Nectin-4. […] FIGS. 12A and 12B show a molecular model of the human Nectin-4 protein, indicating the position of substituted residues in mutants 7 (12A) and in mutants 7bis (12B); these mutants are in the C1 domain identify two sites at the junction of domain C1 and V domain that are on opposing faces of the Nectin-4 protein.
(§2) Nectin-4 mutants were generated by PCR. The sequences amplified were run on agarose gel and purified using the Macherey Nagel PCR Clean-Up Gel Extraction kit. The purified PCR products generated for each mutant were then ligated into an expression vector, with the ClonTech InFusion system. The vectors containing the mutated sequences were prepared as Miniprep and sequenced. After sequencing, the vectors containing the mutated sequences were prepared as Midiprep using the Promega PureYield™ Plasmid Midiprep System. HEK293T cells were grown in DMEM medium (Invitrogen), transfected with vectors using Invitrogen's Lipofectamine 2000 and incubated at 37° C. in a CO2 incubator for 48 hours prior to testing for transgene expression. The targeted amino acid mutations are shown in Table 2 below, listing the residue present in wild-type Nectin-4/position of residue/residue present in mutant Nectin-4, with position reference being to the Nectin-4 protein with leader peptide shown in SEQ ID NO: 1.

[2] = target: T2, Nectin-4 Mutant 2 (V90S/P92A/A93S/E95A/G96D)
Source text: as §1, §2

[3] = target: T3, Nectin-4 Mutant 7 (S195A/K197T/S199A)
Source text: as §1, §2

[4] = target: T4, Nectin-4 Mutant 8 (T190A/T191Q/S193A)
Source text: as §1, §2

| Molecule | association with Nectin-4 Mutant 1 [1] | association with Nectin-4 Mutant 2 [2] | association with Nectin-4 Mutant 7 [3] | association with Nectin-4 Mutant 8 [4] |
| --- | --- | --- | --- | --- |
| B1 | − | + | + | + |
| B2 | + | + | − | + |
| B3 | + | + | − | + |
